B1: Mothers against decapentaplegic homolog 4 (Homo sapiens), Q13485 (parent)
chain: MDNMSITNTPTSNDACLSIVHSLMCHRQGGESETFAKRAIESLVKKLKEKKDELDSLITAITTNGAHPSKCVTIQRTLDGRLQVAGRKGFPHVIYARLWRWPDLHKNELKHVKYCQYAFDLKCDSVCVNPYHYERVVSPGIDLSGLTLQSNAPSSMMVKDEYVHDFEGQPSLSTEGHSIQTIQHPPSNRASTETYSTPALLAPSESNATSTANFPNIPVASTSQPASILGGSHSEGLLQIASGPQPGQQQNGFTGQPATYHHNSTTTWTGSRTAPYTPNLPHHQNGHLQHHPPMPPHPGHYWPVHNELAFQPPISNHPAPEYWCSIAYFEMDVQVGETFKVPSSCPIVTVDGYVDPSGGDRFCLGQLSNVHRTEAIERARLHIGKGVQLECKGEGDVWVRCLSDHAVFVQSYYLDREAGRAPGDAVHKIYPSAYIKVFDLRQCHRQMQQQAATAQAAAAAQAAAVAGNIPGPGSVGGIAPAISLSAAAGIGVDDLRRLCILRMSFVKGWGPDYPRQSIKETPCWIEIHLHRALQLLDEVLHTMPIADPQPLD
partner: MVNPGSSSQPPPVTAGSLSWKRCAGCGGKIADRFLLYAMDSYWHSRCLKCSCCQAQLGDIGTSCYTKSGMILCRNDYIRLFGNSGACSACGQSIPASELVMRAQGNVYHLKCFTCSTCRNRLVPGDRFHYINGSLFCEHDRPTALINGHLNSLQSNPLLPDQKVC
B2: Growth arrest and DNA damage-inducible protein GADD45 gamma (Homo sapiens), O95257 (parent)
chain: MTLEEVRGQDTVPESTARMQGAGKALHELLLSAQRQGCLTAGVYESAKVLNVDPDNVTFCVLAAGEEDEGDIALQIHFTLIQAFCCENDIDIVRVGDVQRLAAIVGAGEEAGAPGDLHCILISNPNEDAWKDPALEKLSLFCEESRSVNDWVPSITLPE
partner: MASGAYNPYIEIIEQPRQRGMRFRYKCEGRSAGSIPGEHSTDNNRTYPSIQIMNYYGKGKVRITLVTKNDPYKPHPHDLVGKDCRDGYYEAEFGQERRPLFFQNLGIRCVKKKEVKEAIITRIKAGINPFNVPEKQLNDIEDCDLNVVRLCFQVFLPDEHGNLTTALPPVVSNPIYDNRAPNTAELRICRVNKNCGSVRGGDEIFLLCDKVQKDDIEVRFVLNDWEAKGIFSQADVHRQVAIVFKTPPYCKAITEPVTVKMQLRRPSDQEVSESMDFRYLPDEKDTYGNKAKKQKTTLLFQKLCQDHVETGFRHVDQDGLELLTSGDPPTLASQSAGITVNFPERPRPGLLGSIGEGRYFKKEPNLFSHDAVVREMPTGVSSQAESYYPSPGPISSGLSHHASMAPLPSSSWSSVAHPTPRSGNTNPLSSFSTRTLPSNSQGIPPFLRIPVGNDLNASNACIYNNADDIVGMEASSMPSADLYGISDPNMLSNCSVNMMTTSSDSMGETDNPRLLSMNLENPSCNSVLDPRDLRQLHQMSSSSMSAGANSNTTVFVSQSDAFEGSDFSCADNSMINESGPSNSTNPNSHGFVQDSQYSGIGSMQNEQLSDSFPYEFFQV
B3: Acylamino-acid-releasing enzyme (Homo sapiens), P13798 (parent)
chain: MERQVLLSEPEEAAALYRGLSRQPALSAACLGPEVTTQYGGQYRTVHTEWTQRDLERMENIRFCRQYLVFHDGDSVVFAGPAGNSVETRGELLSRESPSGTMKAVLRKAGGTGPGEEKQFLEVWEKNRKLKSFNLSALEKHGPVYEDDCFGCLSWSHSETHLLYVAEKKRPKAESFFQTKALDVSASDDEIARLKKPDQAIKGDQFVFYEDWGENMVSKSIPVLCVLDVESGNISVLEGVPENVSPGQAFWAPGDAGVVFVGWWHEPFRLGIRFCTNRRSALYYVDLIGGKCELLSDDSLAVSSPRLSPDQCRIVYLQYPSLIPHHQCSQLCLYDWYTKVTSVVVDVVPRQLGENFSGIYCSLLPLGCWSADSQRVVFDSAQRSRQDLFAVDTQVGTVTSLTAGGSGGSWKLLTIDQDLMVAQFSTPSLPPTLKVGFLPSAGKEQSVLWVSLEEAEPIPDIHWGIRVLQPPPEQENVQYAGLDFEAILLQPGSPPDKTQVPMVVMPHGGPHSSFVTAWMLFPAMLCKMGFAVLLVNYRGSTGFGQDSILSLPGNVGHQDVKDVQFAVEQVLQEEHFDASHVALMGGSHGGFISCHLIGQYPETYRACVARNPVINIASMLGSTDIPDWCVVEAGFPFSSDCLPDLSVWAEMLDKSPIRYIPQVKTPLLLMLGQEDRRVPFKQGMEYYRALKTRNVPVRLLLYPKSTHALSEVEVESDSFMNAVLWLRTHLGS
B4: Neutrophil cytosol factor 2 (Homo sapiens), P19878 (parent)
chain: MSLVEAISLWNEGVLAADKKDWKGALDAFSAVQDPHSRICFNIGCMYTILKNMTEAEKAFTRSINRDKHLAVAYFQRGMLYYQTEKYDLAIKDLKEALIQLRGNQLIDYKILGLQFKLFACEVLYNIAFMYAKKEEWKKAEEQLALATSMKSEPRHSKIDKAMECVWKQKLYEPVVIPVGKLFRPNERQVAQLAKKDYLGKATVVASVVDQDSFSGFAPLQPQAAEPPPRPKTPEIFRALEGEAHRVLFGFVPETKEELQVMPGNIVFVLKKGNDNWATVMFNGQKGLVPCNYLEPVELRIHPQQQPQEESSPQSDIPAPPSSKAPGRPQLSPGQKQKEEPKEVKLSVPMPYTLKVHYKYTVVMKTQPGLPYSQVRDMVSKKLELRLEHTKLSYRPRDSNELVPLSEDSMKDAWGQVKNYCLTLWCENTVGDQGFPDEPKESEKADANNQTTEPQLKKGSQVEALFSYEATQPEDLEFQEGDIILVLSKVNEEWLEGECKGKVGIFPKVFVEDCATTDLESTRREV
B5: Keratin-associated protein 3-2 (Homo sapiens), Q9BYR7 (parent)
chain: MDCCASRSCSVPTGPATTICSSDKSCRCGVCLPSTCPHTVWLLEPICCDNCPPPCHIPQPCVPTCFLLNSCQPTPGLETLNLTTFTQPCCEPCLPRGC
partner: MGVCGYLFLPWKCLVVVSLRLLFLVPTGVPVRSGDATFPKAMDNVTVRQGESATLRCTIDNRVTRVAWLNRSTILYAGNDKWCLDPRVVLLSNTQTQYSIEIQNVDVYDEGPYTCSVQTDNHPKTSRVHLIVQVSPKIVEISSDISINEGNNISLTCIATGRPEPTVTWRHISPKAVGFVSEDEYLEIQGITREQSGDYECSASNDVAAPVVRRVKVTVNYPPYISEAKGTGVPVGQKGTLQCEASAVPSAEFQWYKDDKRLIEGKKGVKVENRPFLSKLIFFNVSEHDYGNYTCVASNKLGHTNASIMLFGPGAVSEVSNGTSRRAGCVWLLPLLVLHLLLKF

Variants of: B1
Details: with lmo4_human LMO4, P61968

| effect of a mutation on the interaction | Variant |
| --- | --- |
| with no effect | L533R |
| with no effect | G352R |
| with no effect | Y353S |
| disrupting interaction strength | C324R |
| with no effect | R361C |
| with no effect | E330K |
| disrupting interaction strength | V350D |
| with no effect | N13S |

Variants of: B2
Details: with rel_human REL

| effect of a mutation on the interaction | Variant |
| --- | --- |
| with no effect | MTLEEVRGQDTVPESTARMQGAGKALHELLLSAQRQGCLTAGVYESAKVLNVDPDNVTFCVLAAGEEDEGDIALQIHFTLIQAFCCENDIDIVRVGDVQRLAAIVGAGEEASAPGDLHCILISNPNEDAWKDPALEKLSLFCEESRSVNDWVPSITLPE |

Variants of: B3
Details: with leg8_human LGALS8, O00214
leg8_human LGALS8, O00214, sequence (O00214 whole entry): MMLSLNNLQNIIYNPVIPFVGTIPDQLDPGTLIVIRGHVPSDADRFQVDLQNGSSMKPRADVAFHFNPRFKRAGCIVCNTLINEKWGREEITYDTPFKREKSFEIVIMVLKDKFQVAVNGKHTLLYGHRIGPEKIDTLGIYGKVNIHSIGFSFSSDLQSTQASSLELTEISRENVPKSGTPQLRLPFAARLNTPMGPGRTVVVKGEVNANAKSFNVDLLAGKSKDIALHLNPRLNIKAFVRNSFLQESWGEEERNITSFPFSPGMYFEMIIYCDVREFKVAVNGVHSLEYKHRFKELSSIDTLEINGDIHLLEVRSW

| effect of a mutation on the interaction | Variant |
| --- | --- |
| disrupting interaction strength | F378S |

Variants of: B4
Details: with kifa3_human KIFAP3, Q92845
kifa3_human KIFAP3, Q92845, sequence (Q92845 whole entry): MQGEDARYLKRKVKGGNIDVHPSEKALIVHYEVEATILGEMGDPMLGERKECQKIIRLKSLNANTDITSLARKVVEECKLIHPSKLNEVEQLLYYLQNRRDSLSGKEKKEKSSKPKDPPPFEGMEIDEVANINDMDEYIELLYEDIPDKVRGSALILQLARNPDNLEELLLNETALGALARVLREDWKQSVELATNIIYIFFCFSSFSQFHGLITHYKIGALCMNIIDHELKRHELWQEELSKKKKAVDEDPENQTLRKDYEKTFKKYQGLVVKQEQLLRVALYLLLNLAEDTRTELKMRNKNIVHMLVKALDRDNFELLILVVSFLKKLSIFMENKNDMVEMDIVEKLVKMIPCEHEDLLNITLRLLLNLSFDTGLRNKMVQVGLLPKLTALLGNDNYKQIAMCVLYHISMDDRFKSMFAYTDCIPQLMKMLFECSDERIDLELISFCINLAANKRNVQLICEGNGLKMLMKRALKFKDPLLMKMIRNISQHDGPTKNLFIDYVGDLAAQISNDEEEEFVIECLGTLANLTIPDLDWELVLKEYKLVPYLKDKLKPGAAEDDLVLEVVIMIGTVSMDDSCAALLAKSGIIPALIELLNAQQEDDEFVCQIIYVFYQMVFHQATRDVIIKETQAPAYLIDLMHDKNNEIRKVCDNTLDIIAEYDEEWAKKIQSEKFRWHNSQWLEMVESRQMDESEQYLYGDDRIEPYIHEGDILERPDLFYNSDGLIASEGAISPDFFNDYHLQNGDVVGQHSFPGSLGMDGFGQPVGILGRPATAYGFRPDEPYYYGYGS

| effect of a mutation on the interaction | Variant |
| --- | --- |
| with no effect | MSLVEAISLWNEGVLAADKKDWKGALDAFSAVQDPHSRICFNIGCMYTILKNMTEAEKAFTRSINRDKHLAVAYFQRGMLYYQTEKYDLAIKDLKEALIQLRGNQLIDYKILGLQFKLFACEVLYNIAFMYAKKEEWKKAEEQLALATSMKSEPRHSKIDKAMECVWKQKLYEPVVIPVGKLFRPNERQVAQLAKKDYLGKATVVASVVDQDSFSGFAPLQPQAAEPPPRPKTPEIFRALEGEAHRVLFGFVPETKEELQVMPGNIVFVLKKGNDNWATVMFNGQKGLVPCNYLEPAELRIHPQQQPQEESSPQSDIPAPPSSKAPGRPQLSPGQKQKEEPKEVKLSVPMPYTLKVHYKYTVVMKTQPGLPYSQVRDMVSKKLELRLEHTKLSYRPRDSNELVPLSEDSMKDAWGQVKNYCLTLWCENTVGDQGFPDEPKESEKADANNQTTEPQLKKGSQVEALFSYEATQPEDLEFQEGDIILVLSKVNEEWLEGECKGKVGIFPKVFVEDCATTDLESTRREV [V297A] |

Variants of: B5
Details: with ntri_human NTM

| effect of a mutation on the interaction | Variant |
| --- | --- |
| with no effect | MDCCASRSCSVPTGPATTICSSDKSCCCGVCLPSTCPHTVWLLEPICCDNCPPPCHIPQPCVPTCFLLNSCQPTPGLETLNLTTFTQPCCEPCLPRGC |
| with no effect | MDCCASRGCSVPTGPATTICSSDKSCRCGVCLPSTCPHTVWLLEPICCDNCPPPCHIPQPCVPTCFLLNSCQPTPGLETLNLTTFTQPCCEPCLPRGC |

— IntAct's records for PubMed 31515488
